Patent EP4782466A1, “FUSION PROTEIN FOR INACTIVATING CORONAVIRUS AND USE THEREOF” (priority 2023, dated 2025)

How the values were obtained:
Test in all cases: cell-based or functional assay
[1] = biological target: S protein of SARS-CoV-2 Alpha (B.1.1.7) (SARS-CoV-2 Alpha (B.1.1.7))
[2] = biological target: S protein of SARS-CoV-2 Beta (B.1.351) (SARS-CoV-2 Beta (B.1.351))
[3] = biological target: S protein of SARS-CoV-2 Delta (B.1.617.2) (SARS-CoV-2 Delta (B.1.617.2))
[4] = biological target: S protein of SARS-CoV-2 Gamma (P.1) (SARS-CoV-2 Gamma (P.1))
[5] = biological target: S protein of SARS-CoV-2 Lambda (SARS-CoV-2 Lambda)
[6] = biological target: S protein of SARS-CoV-2 Omicron BA.1 (SARS-CoV-2 BA.1)
[7] = biological target: S protein of SARS-CoV-2 Omicron BA.2 (SARS-CoV-2 BA.2)
[8] = biological target: S protein of SARS-CoV-2 Omicron BA.2.12.1 (SARS-CoV-2 BA.2.12.1)
[9] = biological target: S protein of SARS-CoV-2 Omicron BA.2.2 (SARS-CoV-2 BA.2.2)
[10] = biological target: S protein of SARS-CoV-2 Omicron BA.2.75 (SARS-CoV-2 BA.2.75)
[11] = biological target: S protein of SARS-CoV-2 Omicron BA.2.9 (SARS-CoV-2 BA.2.9)
[12] = biological target: S protein of SARS-CoV-2 Omicron BA.3 (SARS-CoV-2 BA.3)
[13] = biological target: S protein of SARS-CoV-2 Omicron BA.4.6 (SARS-CoV-2 BA.4.6)
[14] = biological target: S protein of SARS-CoV-2 Omicron BA.5 (SARS-CoV-2 BA.5)
[15] = biological target: S protein of SARS-CoV-2 Omicron BF.7 (SARS-CoV-2 BF.7)
[16] = biological target: S protein of SARS-CoV-2 Omicron BQ.1 (SARS-CoV-2 BQ.1)
[17] = biological target: S protein of SARS-CoV-2 Omicron XBB (SARS-CoV-2 XBB)

Row | Substance | IC50, inhibition of pseudovirus infection (Caco-2, luciferase) [1] [nM] | IC50, inhibition of pseudovirus infection (Caco-2, luciferase) [2] [nM] | IC50, inhibition of pseudovirus infection (Caco-2, luciferase) [3] [nM] | IC50, inhibition of pseudovirus infection (Caco-2, luciferase) [4] [nM] | IC50, inhibition of pseudovirus infection (Caco-2, luciferase) [5] [nM] | IC50, inhibition of pseudovirus infection (Caco-2, luciferase) [6] [nM] | IC50, inhibition of pseudovirus infection (Caco-2, luciferase) [7] [nM] | IC50, inhibition of pseudovirus infection (Caco-2, luciferase) [8] [nM] | IC50, inhibition of pseudovirus infection (Caco-2, luciferase) [9] [nM] | IC50, inhibition of pseudovirus infection (Caco-2, luciferase) [10] [nM] | IC50, inhibition of pseudovirus infection (Caco-2, luciferase) [11] [nM] | IC50, inhibition of pseudovirus infection (Caco-2, luciferase) [12] [nM] | IC50, inhibition of pseudovirus infection (Caco-2, luciferase) [13] [nM] | IC50, inhibition of pseudovirus infection (Caco-2, luciferase) [14] [nM] | IC50, inhibition of pseudovirus infection (Caco-2, luciferase) [15] [nM] | IC50, inhibition of pseudovirus infection (Caco-2, luciferase) [16] [nM] | IC50, inhibition of pseudovirus infection (Caco-2, luciferase) [17] [nM] | further results
1 | AL7E protein (ACE2-linker-EK1 fusion protein with (GGGGS)7 linker) | 0.21 | 0.24 | 0.31 | 0.25 | 0.27 | 0.14 | 0.12 | 0.23 | 0.28 | 1.04 | 0.21 | 0.11 | 0.56 | 0.31 | 0.93 | 1.14 | 0.94 | 
2 | AL6E protein (ACE2-linker-EK1 fusion protein with (GGGGS)6 linker) | 0.25 | 0.25 | 0.31 | 0.28 | 0.07 | 0.11 | 0.21 | 0.17 | 0.24 | 1.4 | 0.09 | 0.27 | 1.96 | 0.13 | 1.01 | 0.86 | 0.23 | 
3 | AL2E protein (ACE2-linker-EK1 fusion protein with (GGGGS)2 linker) (from UniProt Q9BYF1 18-615) | 0.22 | 0.27 | 0.32 | 0.39 | 0.09 | 0.18 | 0.16 | 0.26 | 0.4 | 0.69 | 0.43 | 0.58 | 1.03 | 0.1 | 0.46 | 0.4 | 0.64 | 
4 | ACE2 protein alone (ACE2 peptidase domain alone) (from UniProt Q9BYF1 18-615) (receptor) | 6.2 | 16.1 | 4.85 | 15.1 | 12.8 | 18.7 | 12.6 | 10.6 | 11.9 | 26.5 | 7.63 | 6.51 | 65.9 | 15.3 | 101 | 21.8 | 12.7 | EC50, inactivation of pseudovirus (Caco-2, luciferase) [1]: 243 nM; EC50, inactivation of pseudovirus (Caco-2, luciferase) [2]: 123 nM; EC50, inactivation of pseudovirus (Caco-2, luciferase) [3]: 605 nM; EC50, inactivation of pseudovirus (Caco-2, luciferase) [4]: 88.5 nM; EC50, inactivation of pseudovirus (Caco-2, luciferase) [5]: 116 nM; EC50, inactivation of pseudovirus (Caco-2, luciferase) [6]: 82.2 nM; EC50, inactivation of pseudovirus (Caco-2, luciferase) [7]: 329 nM; EC50, inactivation of pseudovirus (Caco-2, luciferase) [8]: 76.1 nM; EC50, inactivation of pseudovirus (Caco-2, luciferase) [9]: 476 nM; EC50, inactivation of pseudovirus (Caco-2, luciferase) [10]: 677 nM; EC50, inactivation of pseudovirus (Caco-2, luciferase) [11]: 407 nM; EC50, inactivation of pseudovirus (Caco-2, luciferase) [12]: 52.1 nM; EC50, inactivation of pseudovirus (Caco-2, luciferase) [13]: 1160 nM; EC50, inactivation of pseudovirus (Caco-2, luciferase) [14]: 336 nM; EC50, inactivation of pseudovirus (Caco-2, luciferase) [15]: 192 nM; EC50, inactivation of pseudovirus (Caco-2, luciferase) [16]: 149 nM; EC50, inactivation of pseudovirus (Caco-2, luciferase) [17]: 212 nM
5 | EK1 polypeptide | 268 | 257 | 150 | 277 | 995 | 70.5 | 297 | 342 | 162 | 331 | 199 | 136 | 473 | 568 | 584 | 136 | 233 | 
